Test results published in patent US20210324050A1 (published 2021).

T1: Shell domain (UniProt P54635 1-221)
T1 chain: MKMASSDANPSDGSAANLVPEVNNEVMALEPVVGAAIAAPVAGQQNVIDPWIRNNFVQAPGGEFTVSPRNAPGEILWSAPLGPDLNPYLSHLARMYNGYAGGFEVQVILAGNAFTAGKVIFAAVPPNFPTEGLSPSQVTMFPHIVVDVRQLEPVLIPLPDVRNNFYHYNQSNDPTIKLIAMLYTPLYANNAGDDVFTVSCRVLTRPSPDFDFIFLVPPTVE

B1: 232A.2 (antibody, V domains shown)
VH: QVQLKQWGAGLLKSSETLSLTCAFNGNSFGAFYWSWIRLSPGKGLEWIGEVNYLGGADYNPSLKSRVTMSADTSKRQFSLSLKSVTAADTGVYFCARGRPHDYSPGSYSRPRRYYGLDVWGQGTTVTVSS
VL: EIVLTQSPATLSLSPGDSATLSCRASQAVSTTYLAWYQQTRGQAPRLLIHGTYTRAIGIPDKFSGTGSGTDFTLTISGLAPEDFAVYYCQQYSSSPYTFGQGTKIEIT
B2: 168.2 (antibody, V domains shown)
VH: QVQLVESGGGVVQPGRSLRLSCAASGFTFSSYAMHWVRQAPGKGLEWVAVISYDGSNKYYADSVKGRFTISRDNSKNTLYLQMNSLRAEDTAVYYCARSVIGYYYYGMDVWGQGTLVTVSS
VL: QPVLTQPPSASASLGASVTLTCTLSSGYSNYKVDWYQQRPGKGPRFVMRVGTGGIVGSKGDGIPDRFSVLGSGLNRYLTIKNIQEEDESDYHCGADHGSGILFGGGTKLTVL

Key:
Shell domain = target: T1, Shell domain; test: ELISA
Protruding domain = test: ELISA
GII.4 Houston 2002 VLP [1] = target: T2, GII.4 Houston 2002 VLP (UniProt P54635 1-539); test: VLP blockade
GII.17 Protruding = GII.17 Protruding (norovirus GII.17); test: ELISA
GII.4 Protruding = test: ELISA
GII.6 Protruding = GII.6 Protruding (norovirus GII.6); test: ELISA
GII.4 = GII.4 (UniProt P54635 1-538); test: VLP-PGM blockade
GII.6 [2] = target: GII.6 (norovirus GII.6); test: VLP-PGM blockade
GII.13 = GII.13 (norovirus GII.13); test: ELISA
GII.6 [3] = target: GII.6 (norovirus GII.6); test: ELISA
GII.3 = GII.3 (norovirus GII.3); test: ELISA
GII.4 Houston 2002 VLP [4] = target: T2, GII.4 Houston 2002 VLP; test: ELISA binding
GI.3 Shell = GI.3 Shell (norovirus GI.3); test: ELISA
GII.17 Shell = GII.17 Shell (norovirus GII.17); test: ELISA
GII.6 Shell = GII.6 Shell (norovirus GII.6); test: ELISA
GI.3 Protruding = GI.3 Protruding (norovirus GI.3); test: ELISA
GII.17 = GII.17 (norovirus GII.17); test: ELISA
GI.3 = GI.3 (norovirus GI.3); test: ELISA

Binder	EC50 (Shell domain)	EC50 (Protruding domain)	EC50 (GII.4 Houston 2002 VLP [1])	EC50 (GII.17 Protruding)	EC50 (GII.4 Protruding)	EC50 (GII.6 Protruding)	EC50 (GII.4)	EC50 (GII.6 [2])	EC50 (GII.13)	EC50 (GII.6 [3])	EC50 (GII.3)	EC50 (GII.4 Houston 2002 VLP [4])	EC50 (GI.3 Shell)	EC50 (GII.17 Shell)	EC50 (GII.6 Shell)	EC50 (GI.3 Protruding)	EC50 (GII.17)	EC50 (GI.3)
B1	38.1 µg/mL	0.4 µg/mL	5.4 µg/mL	2 nM	3 nM	2 nM	115 nM	20 nM	2 nM	1 nM	1 nM	0.2 µg/mL	–	–	–	–	–	–
B2	–	–	–	390 nM	–	135 nM	–	–	107 nM	–	224 nM	–	37 nM	183 nM	162 nM	143 nM	153 nM	8 nM
